From article PMC11094138, “The NTE domain of PTENα/β promotes cancer progression by interacting with WDR5 via its SSSRRSS motif” (Cell Death & Disease, 2024) come the findings set out here.

Assay [1] deals with T1, WDR5^22–334 (human, UniProt P61964 22-334). Description: ITC; WDR5 (50 µM) in the cell, peptide or protein (750 µM) in the syringe, 20 injections; 25 °C; 20 mM Tris-HCl pH 7.5, 150 mM NaCl; single-site model; iTC-200. Particulars: both partners purified.
Assay [2] addresses T1, WDR5^22–334. Description: ITC; competitive: PTENα-NTE^116–148 or PTENα-NTE^1–173 titrated into a 1:1 molar mixture of WDR5^22–334 and H3 1–15; 25 °C; 20 mM Tris-HCl pH 7.5, 150 mM NaCl. Particulars: both partners purified. (ITC needs no label: the signal is the heat of the interaction.)

B1: MLL1 WIN motif MLL1^3762–3772 (peptide)
peptide: GSARAEVHLRK
notes: source: lyophilized peptide (Shanghai Apeptide or GL Biochem)
Turning to B1, the binding result with WDR5^22–334 [1] is recorded as “binds”.

B2: MLL1^3762–3772_A3764R (peptide)
peptide: GSRRAEVHLRK
notes: as for B1
With B2, in the assay with WDR5^22–334 [1], the binding result is “binds”.

B3: PTENα-NTE^116–148 peptide (peptide)
peptide: SSRRSSHYPAAVQSQAAAERGASATAKSRAISI
notes: PTENα (PTEN-L), the N-terminally extended variant of human PTEN (576 residues); residues 116–148 of its N-terminal extension; also called synthetic PTENα-NTE^116–148 peptide; source: synthetic peptide
Turning to B3, the “Kd against a 1:1 mixture of WDR5^22–334 and H3 1–15” value with WDR5^22–334 [2] was determined as 32 ± 3 µM. For the same molecule, in the assay with WDR5^22–334 [1], binding was characterised by a dissociation constant (Kd) of 3.8 µM.
